Legend:
[1] = target: T1, Human neutrophil elastase (HNE) (Homo sapiens) (UniProt P08246); experiment: filter; conditions: 150 mM NaCl, 100 mM Tris-HCl pH 7.0, 2 mM MgCl2, 6 mM KCl, 0.02% HSA, 37 C
T1 sequence: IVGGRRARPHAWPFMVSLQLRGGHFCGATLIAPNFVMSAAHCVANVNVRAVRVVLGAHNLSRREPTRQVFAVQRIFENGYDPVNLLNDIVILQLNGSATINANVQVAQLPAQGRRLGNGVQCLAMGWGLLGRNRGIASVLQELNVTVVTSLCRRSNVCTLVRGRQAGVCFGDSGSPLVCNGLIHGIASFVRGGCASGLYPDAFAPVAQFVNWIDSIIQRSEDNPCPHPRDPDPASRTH

[2] = target: T1, Human neutrophil elastase (HNE) (Homo sapiens); experiment: flow; conditions: HNE on polystyrene beads, 2 mM MgCl2, 1% BSA, room temperature
[3] = target: T2, Human neutrophil elastase (HNE) (Homo sapiens, UniProt P08246 P08246:30-267); experiment: flow; second-step staining with streptavidin-phycoerythrin; affinity lower than direct fluorescence measurement; conditions: tags: Athens Research and Technology, salt-free lyophilized solid; label: biotin (streptavidin-phycoerythrin); G-quartet with duplex ends
[4] = target: T2, Human neutrophil elastase (HNE); experiment: filter; 150 mM NaCl, 100 mM Tris-HCl pH 7.0, 2 mM MgCl2, 6 mM KCl, 0.02% HSA, 37 C; conditions: tags: Athens Research and Technology, salt-free lyophilized solid; label: fluorescein; G-quartet with duplex ends
[5] = target: T2, Human neutrophil elastase (HNE); experiment: flow; HNE on polystyrene beads, 2 mM MgCl2, 1% BSA, room temperature; conditions: tags: Athens Research and Technology, salt-free lyophilized solid; label: fluorescein; G-quartet with duplex ends
Protocol: Beads (0.5% solids) in acetate buffer were coated with HNE (0.5 μg/cm² of bead surface area) for 30 min and then washed and suspended (approx. 5×10⁵ beads/μL) in acetate buffer containing 2% BSA. HNE coated beads were stored at 4° C. until use.
Staining of HNE coated beads was achieved by incubating beads (approx. 3×10⁵) with varying concentrations of fluoresceinated oligonucleotides in 50 μL of binding buffer consisting of 100 mM Tris-HCl (pH 7.0), 0.15M NaCl, 6 mM KCl, 2 mM MgCl₂ and 1% BSA for 30 min at room temperature. The beads were then washed with 2 mL of the same buffer and suspended in 0.5 mL for analysis. Staining with mouse anti-HNE was accomplished in the same method except that bound antibody was detected by a second step fluorescein isothiocyanate (FITC) labeled antibody (X56-FITC). […] Analysis was performed on a FACScan™ flowcytometer (Becton Dickinson). The sensitivity of the flowcytometer was adjusted so that the autofluorescence of the unstained beads was located in the middle of the first decade.

[6] = two internal fluoresceins in extension
[7] = tail-to-tail dimer via symmetric 3'-3' linker (X) with ethylene glycol linkers and two fluoresceins (LFLXLFL)

“GNCACAGTCGACGATACTGCGTGGGTTGGGGCGGGTAGGGCCAGCAGTCTCGTNGACTGRGTC [DNA-EXT]” showed a Kd [1, 6] of 12 nM and a Kd [2, 6] of 48 nM.

“TAGCGATACTGCGTGGGTTGGGGCGGGTAGGGCCAGCAGTCTCGTNNNNNNNTGCTCTGACGACCGGGATGGGCGGGGTTGGGTGCGTCATAGCGAT [DNA-DIMER-TT]” gave a Kd [1, 7] of 3 nM and a Kd [2, 7] of 20 nM.

TAGCGATACTGCGTGGGTTGGGGCGGGTAGGGCCAGCAGTCTCGTT (ssDNA, biotin attached to 3' end through a linker) [biotinylated DNA ligand]: binds [3].

B1: DNA-LNK-5F (ssDNA)
DNA: TAGCGATACTGCGTGGGTTGGGGCGGGTAGGGCCAGCAGTCTCGT
modifications: 5' fluorescein followed by two hexaethylene glycol spacers [5' fluorescein + two hexaethylene glycol spacers (n1-n3, left out) before T1]
B1 showed a Kd [4] of 12 nM and a Kd [5] of 110 nM.
